Literature values, collected in paper PMC4080432.
Where two headings read alike, the source gives them in different places.

Assays:
[1] = target: NapB (Escherichia coli) (UniProt P0ABL3)
[2] = target: NapB (Escherichia coli) (UniProt P0ABL3); remark: listed apart in the source

UniProt P0ABL3, sequence (P0ABL3 28-149): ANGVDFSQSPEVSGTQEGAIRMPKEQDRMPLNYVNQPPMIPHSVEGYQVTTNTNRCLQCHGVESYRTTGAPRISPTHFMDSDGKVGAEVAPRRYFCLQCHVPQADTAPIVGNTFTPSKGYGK

Kd [1]: 32 µM
Kd [2]: 15 µM
Substance: NapA (from UniProt P33937)
